In patent US20260000736A1, “PURIFIED LACTOFERRIN COMPOSITIONS AND METHODS OF USE” (Lactea Therapeutics LLC, priority 2023, published 2026):
Entries after “also recorded” stand apart in the source; their conditions may differ.

Columns and labels:
[1] = Differential Scanning Calorimetry (DSC) of apolactoferrin and hololactoferrin forms; assay type: physicochemical
Description: Di[…] Calorimetry (DSC) was used to assess the hololactoferrin and apolactoferrin forms through monitoring unfolding temperatures of lactoferrin samples using a nanoDSC (TA Instruments, Lindon, UT) according to standard DSC protocols known to those of skill in the art (e.g., see Hinz et al “M[…] […] OF […] ON […] DI[…] CALORIMETRY”; herein incorporated by reference for all purposes.
API-E2 Lactoferrin (10 mg/mL), produced as described herein, was assessed by DSC. […] The lack of other peaks indicates the lack of contaminants and impurities and can assess API-E2 as ˜100%. […] Additionally, the lack of other peaks also indicated the purity of API-E2 Lactoferrin. […] The API-E2 hololactoferrin peak has a Tm of 88.38+/−0.8 C and a delta H of 632.7+/−7.2 kJ/mol. The hololactoferrin natively accounted for on average 8.74+/−1.39% of the total API-E2 lactoferrin with apolactoferrin accounting for the rest in the samples tested. However, the hololactoferrin percentage can be naturally variable. The API-E2 was calculated by this technique to contain virtually 100% pure lactoferrin.
The assay was also performed with heat-treated API-E2 Lactoferrin. API-E2 Lactoferrin was heated across a range of 50-100° C.
Lab-grade standard lactoferrin and a commercially available supplement-grade lactoferrin were also assessed by DSC under the conditions used to assess API-E2 above.

[2] = test system: ECM of primary buccal cells; assay: ECM association by immunofluorescence in primary buccal cells; assay type: cell-based; details: 100 µg/mL for 1 hr at 37 C
Description: Primary buccal cells were next cultured according to a standard protocol (e.g., see Russo et al. Cytotechnology. 2016 October; 68(5): 2105-2114; herein incorporated by reference for all purposes). […] Immunofluorescence imaging was performed as previously described.

SARS-CoV-2 = SARS-CoV-2 Cytopathic Effect (CPE) reduction assay in Vero E6 cells; assay type: cell-based; details: Vero E6 cells, MOI of 0.001, neutral red, three days post-infection
lactoperoxidase (LPO) = assay: Enzymatic colorimetric assay for lactoperoxidase (LPO) activity; assay type: biochemical; details: colorimetric peroxidase substrate
Description: An enzymatic assay for lactoperoxidase (LPO) activity was developed utilizing a molecule which in the presence of peroxidase activity turns a blue color.

[3] = DSC of additional batches, ratio of apo to holo-Lactoferrin; assay type: physicochemical; details: 5 mg/mL, 30° C. to 100° C. range
Description: Additional batches of Lactea-Lf as described in the above examples and the relative ratio of apo to holo-Lactoferrin was assessed by Differential Scanning Calorimetry (DSC). Lactoferrin samples were loaded at 5 mg/mL into a NanoDSC (TI Instruments) and measured in the 30° C. to 100° C. range. […] It is likely that these peaks are smaller as the sample is highly impure or contains already denatured product.

E. coli 0157 [4] = assay: Bacterial growth timecourse, OD600; assay type: cell-based; details: 1 mg/mL; for Bacterial Growth Timecourse, Replicate 1 / Bacterial Growth Timecourse, Replicate 2 / Bacterial Growth Timecourse, Replicate 3: OD600 relative to no treatment control at 24 hours
Description: For a more detailed comparison of Lactea-Lf antimicrobial activity relative to the Sigma Aldrich Lactoferrin, Lactea-Lf and Sigma Aldrich Lactoferrin were incubated at 1 mg/mL with for E. coli 0157 in LB seeded at 10∝CFU/mL. […] Results were quantified and reported as a percent of the OD600 of the no treatment control at 24 hours for all timepoints.

E. coli 0157 [5] = assay: Biofilm formation, crystal violet assay; assay type: cell-based; details: for Biofilm Inhibition, Replicate 1 / Biofilm Inhibition, Replicate 2 / Biofilm Inhibition, Replicate 3: 24 hours
Description: Lactoferrin was assessed for biofilm growth inhibition. To study the relative concentration dependent efficacy of Lactea-Lf and the Sigma Aldrich research standard Lactoferrin in inhibiting biofilm formation, Lf was added at concentrations ranging from 2 mg/mL to 0.31 mg/mL (2-fold serial dilution curve) to E. coli 0157 in LB seeded at 10∝CFU/mL and incubated for 37° C. for 24 hours. Lactea Lactoferrin (Lactea-Lf) was produced as described in the above examples. The biofilm was stained using a standard crystal violet assay. A quantification of the inhibition of biofilm formation (FIG. 18A) and an image of a representative plate (FIG. 18B) are shown.

E. coli 0157 [6] = assay: Bacterial growth inhibition, OD600 after 16 h; assay type: cell-based; details: 1 mg/mL Lf, 16 h at 37° C.
Description: As an analytical standard for the assessment of Lactoferrin (Lf) activity, 1 mg/mL Lf was added to 10∝CFU/mL E. coli 0157 in LB and incubated for 16 h at 37° C. Lactea Lactoferrin (Lactea-Lf) was produced as described in the above examples. Assessed were three independent lots of Lactea-Lf, impure samples which were generated by co-eluting Lactoperoxidase and Lactoferrin (co-elution), samples with degradation products generated by eluting Lactoferrin from old milk which was left for three days (Degradation Products), and a Sigma Aldrich Lactoferrin L9507 (Research Standard). As shown in FIG. 16 and quantified in Table 5, in the Lactea-Lf lots assessed, less than 5% the total growth of bacteria was observed as assessed by OD600 relative to the growth of untreated bacteria under these conditions. In this case, co-elution samples were samples which have a detectable peak of LPO as observable in MALDI-TOF M/S or HPLC. Degradation Products had identifiable degradation peaks as observed in HPLC or DSC.

[7] = 10∝CFU/mL E. coli 0157 in LB, OD600 relative to untreated

B1: Lab-grade standard lactoferrin: commercially available lab-grade standard lactoferrin (protein, UniProt P24627 20-708, looked up)
Lactotransferrin: APRKNVRWCTISQPEWFKCRRWQWRMKKLGAPSITCVRRAFALECIRAIAEKKADAVTLDGGMVFEAGRDPYKLRPVAAEIYGTKESPQTHYYAVAVVKKGSNFQLDQLQGRKSCHTGLGRSAGWIIPMGILRPYLSWTESLEPLQGAVAKFFSASCVPCIDRQAYPNLCQLCKGEGENQCACSSREPYFGYSGAFKCLQDGAGDVAFVKETTVFENLPEKADRDQYELLCLNNSRAPVDAFKECHLAQVPSHAVVARSVDGKEDLIWKLLSKAQEKFGKNKSRSFQLFGSPPGQRDLLFKDSALGFLRIPSKVDSALYLGSRYLTTLKNLRETAEEVKARYTRVVWCAVGPEEQKKCQQWSQQSGQNVTCATASTTDDCIVLVLKGEADALNLDGGYIYTAGKCGLVPVLAENRKSSKHSSLDCVLRPTEGYLAVAVVKKANEGLTWNSLKDKKSCHTAVDRTAGWNIPMGLIVNQTGSCAFDEFFSQSCAPGADPKSRLCALCAGDDQGLDKCVPNSKEKYYGYTGAFRCLAEDVGDVAFVKNDTVWENTNGESTADWAKNLNREDFRLLCLDGTRKPVTEAQSCHLAVAPNHAVVSRSDRAAHVKQVLLHQQALFGKNGKNCPDKFCLFKSETKNLLFNDNTECLAKLGGRPTYEEYLGTEYVTAIANLKKCSTSPLLEACAFLTR
Tm, Apolactoferrin peak ([1]; 10 mg/mL): 55 C | Tm, Hololactoferrin peak ([1]; 10 mg/mL): 85 C | estimated ratio of the apolactoferrin to hololactoferrin peak ([1]; conditions as for API-E2): nearly equal | ECM association of Lactoferrin (immunofluorescence imaging) [2]: only limited ECM association

B2: heat-treated API-E2 Lactoferrin: API-E2 Lactoferrin heated across a range of 50-100° C. (protein, UniProt P24627 20-708, looked up)
Lactotransferrin: B1 Lactotransferrin
modifications: heat-treated
detectable apolactoferrin and hololactoferrin DSC peaks ([1]; conditions as for API-E2): loss in both detectable peaks

B3: Lactoferrin (“Reagent”): reagent grade Lactoferrin, comparable research grade reference product (protein, UniProt P24627 20-708, looked up)
Lactotransferrin: B1 Lactotransferrin
EC50 (SARS-CoV-2): 140 nM

B4: Sigma-Lf: Sigma Aldrich Lactoferrin L9507 (Research Standard) (protein, UniProt P24627 20-708, looked up)
Lactotransferrin: B1 Lactotransferrin
LPO enzymatic activity (blue color reaction) (lactoperoxidase (LPO)): does not result in a positive enzymatic reaction | relative ratio of apo to holo-Lactoferrin, DSC peak pattern [3]: one lot was almost entirely holo-Lf and had two peaks in the holo-Lf range; also recorded: two faint peaks with slightly more holo-Lf than apo-Lf | time at which bacterial growth became observable / evident (E. coli 0157 [4]; E. coli 0157 in LB): 6 h | Bacterial Growth Timecourse, Replicate 1 (E. coli 0157 [4]; 3 h): 0.04197 | Bacterial Growth Timecourse, Replicate 2 (E. coli 0157 [4]; 3 h): 0.0345 | Bacterial Growth Timecourse, Replicate 3 (E. coli 0157 [4]; 3 h): 0.04414 | Bacterial Growth Timecourse, Replicate 1 (E. coli 0157 [4]; 6 h): 0.6058 | Bacterial Growth Timecourse, Replicate 2 (E. coli 0157 [4]; 6 h): 0.6264 | Bacterial Growth Timecourse, Replicate 3 (E. coli 0157 [4]; 6 h): 0.6363 | Bacterial Growth Timecourse, Replicate 1 (E. coli 0157 [4]; 9 h): 0.6012 | Bacterial Growth Timecourse, Replicate 2 (E. coli 0157 [4]; 9 h): 0.6124 | Bacterial Growth Timecourse, Replicate 3 (E. coli 0157 [4]; 9 h): 0.6341 | Bacterial Growth Timecourse, Replicate 1 (E. coli 0157 [4]; 12 h): 0.6658 | Bacterial Growth Timecourse, Replicate 2 (E. coli 0157 [4]; 12 h): 0.6702 | Bacterial Growth Timecourse, Replicate 3 (E. coli 0157 [4]; 12 h): 0.6326 | Bacterial Growth Timecourse, Replicate 1 (E. coli 0157 [4]; 15 h): 0.6543 | Bacterial Growth Timecourse, Replicate 2 (E. coli 0157 [4]; 15 h): 0.6602 | Bacterial Growth Timecourse, Replicate 3 (E. coli 0157 [4]; 15 h): 0.6251 | Bacterial Growth Timecourse, Replicate 1 (E. coli 0157 [4]; 18 h): 0.6295 | Bacterial Growth Timecourse, Replicate 2 (E. coli 0157 [4]; 18 h): 0.6201 | Bacterial Growth Timecourse, Replicate 3 (E. coli 0157 [4]; 18 h): 0.599 | Bacterial Growth Timecourse, Replicate 1 (E. coli 0157 [4]; 21 h): 0.6512 | Bacterial Growth Timecourse, Replicate 2 (E. coli 0157 [4]; 21 h): 0.5981 | Bacterial Growth Timecourse, Replicate 3 (E. coli 0157 [4]; 21 h): 0.5984 | Bacterial Growth Timecourse, Replicate 1 (E. coli 0157 [4]; 24 h): 0.6668 | Bacterial Growth Timecourse, Replicate 2 (E. coli 0157 [4]; 24 h): 0.6205 | Bacterial Growth Timecourse, Replicate 3 (E. coli 0157 [4]; 24 h): 0.6407 | inhibition of biofilm formation, in words (E. coli 0157 [5]; E. coli 0157, 24 hours): only appears to demonstrate inhibition of biofilm in the low mg/mL range, but never completely eliminates biofilm formation | Biofilm Inhibition, Replicate 1 (E. coli 0157 [5]; [Lf] 0.031 mg/mL): 0.6588 | Biofilm Inhibition, Replicate 2 (E. coli 0157 [5]; [Lf] 0.031 mg/mL): 0.9283 | Biofilm Inhibition, Replicate 3 (E. coli 0157 [5]; [Lf] 0.031 mg/mL): 0.854 | Biofilm Inhibition, Replicate 1 (E. coli 0157 [5]; [Lf] 0.063 mg/mL): 0.2439 | Biofilm Inhibition, Replicate 2 (E. coli 0157 [5]; [Lf] 0.063 mg/mL): 0.1943 | Biofilm Inhibition, Replicate 3 (E. coli 0157 [5]; [Lf] 0.063 mg/mL): 0.3058 | Biofilm Inhibition, Replicate 1 (E. coli 0157 [5]; [Lf] 0.125 mg/mL): 0.1583 | Biofilm Inhibition, Replicate 2 (E. coli 0157 [5]; [Lf] 0.125 mg/mL): 0.1464 | Biofilm Inhibition, Replicate 3 (E. coli 0157 [5]; [Lf] 0.125 mg/mL): 0.5378 | Biofilm Inhibition, Replicate 1 (E. coli 0157 [5]; [Lf] 0.25 mg/mL): 0.1929 | Biofilm Inhibition, Replicate 2 (E. coli 0157 [5]; [Lf] 0.25 mg/mL): 0.2837 | Biofilm Inhibition, Replicate 3 (E. coli 0157 [5]; [Lf] 0.25 mg/mL): 0.358 | Biofilm Inhibition, Replicate 1 (E. coli 0157 [5]; [Lf] 0.5 mg/mL): 0.126 | Biofilm Inhibition, Replicate 2 (E. coli 0157 [5]; [Lf] 0.5 mg/mL): 0.192 | Biofilm Inhibition, Replicate 3 (E. coli 0157 [5]; [Lf] 0.5 mg/mL): 0.1942 | Biofilm Inhibition, Replicate 1 (E. coli 0157 [5]; [Lf] 1 mg/mL): 0.05367 | Biofilm Inhibition, Replicate 2 (E. coli 0157 [5]; [Lf] 1 mg/mL): 0.09846 | Biofilm Inhibition, Replicate 3 (E. coli 0157 [5]; [Lf] 1 mg/mL): 0.1465 | Biofilm Inhibition, Replicate 1 (E. coli 0157 [5]; [Lf] 2 mg/mL): 0.09652 | Biofilm Inhibition, Replicate 2 (E. coli 0157 [5]; [Lf] 2 mg/mL): 0.03678 | Biofilm Inhibition, Replicate 3 (E. coli 0157 [5]; [Lf] 2 mg/mL): 0.08427 | Relative Bacterial Growth, Replicate 1 (E. coli 0157 [6]; [7]): 0.8089 | Relative Bacterial Growth, Replicate 2 (E. coli 0157 [6]; [7]): 0.8162 | Relative Bacterial Growth, Replicate 3 (E. coli 0157 [6]; [7]): 0.7726 | antibacterial activity compared with other samples (E. coli 0157 [6]): less activity than any lot of co-elution or degraded product
